This is an account of results in patent US20110217282, “Novel Toxin-Antitoxin System” (UNIVERSITY OF MEDICINE AND DENTISTRY OF NEW JERSEY, published 2011).

Data set [1] has as its target T1, YgiT (Escherichia coli, UniProt Q46864 SEQ:1-131). In words: EMSA; shift at 10 nM and higher, none at 5 nM; 50 mM Tris-HCl pH 7.2, 50 mM KCl, poly(dI-dC), 4 C. The conditions noted are these: tags: C-terminal His; chain copies: 2 inferred; label: 5'-32P. (In general: A gel shift assay detects complexes by their altered migration in electrophoresis.)
Data set [2] concerns the target T2, MqsR-YgiT complex (Escherichia coli, UniProt Q46865;Q46864 SEQ:1-98,SEQ:1-131). In words: EMSA; shift from 5 nM; stronger than YgiT alone; MqsR:YgiT 2:1. The conditions noted are these: tags: N-terminal His on MqsR; chain copies: 4 MqsR + 2 YgiT inferred; label: 5'-32P.
Data set [3] has as its target MqsR (Escherichia coli, UniProt Q46865 SEQ:1-98). Description: EMSA; no binding up to 80 nM. The note with it: chain copies: 2 inferred; label: 5'-32P.
For data set [4], the target named is T1, YgiT. Description: EMSA; shift at 20 nM and higher, none at 5 nM; 50 mM Tris-HCl pH 7.2, 50 mM KCl, poly(dI-dC), 4 C. The note with it: tags: C-terminal His; chain copies: 2 inferred; label: 5'-32P.
In data set [5] the target is T2, MqsR-YgiT complex. Description: EMSA; shift from 10 nM; stronger than YgiT alone; MqsR:YgiT 2:1. The conditions noted are these: tags: N-terminal His on MqsR; chain copies: 4 MqsR + 2 YgiT inferred; label: 5'-32P.

T1 sequence (Q46864 whole entry): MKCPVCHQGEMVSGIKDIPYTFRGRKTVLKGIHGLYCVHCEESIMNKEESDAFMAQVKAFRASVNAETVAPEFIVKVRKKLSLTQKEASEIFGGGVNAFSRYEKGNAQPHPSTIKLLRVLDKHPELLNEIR
T2 sequence (Q46865 whole entry, chain 1 of 2): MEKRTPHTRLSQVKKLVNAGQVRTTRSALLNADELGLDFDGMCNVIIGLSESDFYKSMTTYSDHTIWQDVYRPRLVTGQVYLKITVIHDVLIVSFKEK
T2 sequence (Q46864 whole entry, chain 2 of 2): as the sequence (Q46864 whole entry) above
MqsR, sequence (Q46865 whole entry): as the sequence (Q46865 whole entry, chain 1 of 2) above

B1: mqsR-ygiT palindrome 1 (dsDNA)
DNA 1: CCCCTAACTAACCTTTTAGGTGCTTTTCCCC
DNA 2: GGGGAAAAGCACCTAAAAGGTTAGTTAGGGG
Consider B1, for which the figures for the binding result in data set [1], in data set [2] and in data set [3] were “binds”, “binds” and “no binding”, respectively.

B2: mqsR-ygiT palindrome 2 (dsDNA)
DNA 1: CCCAATTAACCTTTTAGGTTATAACCC
DNA 2: GGGTTATAACCTAAAAGGTTAATTGGG
Consider B2, for which the results for the binding result in data set [4], in data set [3] and in data set [5] were “binds”, “no binding” and “binds”, respectively.
